Results: patent publication US12466853B2, “Selective targeting of apoptosis proteins by structurally-stabilized and/or cysteine-reactive NOXA peptides” (priority 2017, dated 2025)
Numbering of substitutions follows the chain as printed. “Also recorded” adds a separate entry of the source. Positions of bridges follow the written chain, without caps; N, C: chain ends. Non-standard residues stand in square brackets, D forms with d. No end group written: not given here. R8 = C=CCCCCCC[C@@](C)(N)C(=O)O; S5 = C=CCCC[C@](C)(N)C(=O)O

Key:
His-BFL-1ΔC C4S/C19S = target: T1, His-BFL-1ΔC C4S/C19S (Homo sapiens, UniProt Q16548, C19S/C4S); experiment: In vitro covalent conjugation assay (gel shift, Coomassie; intact mass spectrometry); type: binding
T1 construct: Recombinant anti-apoptotic BFL-1ΔC (aa 1-151) and its cysteine to serine mutants were cloned into PET17b; made in house; host or cells: Escherichia coli LOBSTR BL21(DE3)
T1 sequence (Q16548 1-151 C4S/C19S): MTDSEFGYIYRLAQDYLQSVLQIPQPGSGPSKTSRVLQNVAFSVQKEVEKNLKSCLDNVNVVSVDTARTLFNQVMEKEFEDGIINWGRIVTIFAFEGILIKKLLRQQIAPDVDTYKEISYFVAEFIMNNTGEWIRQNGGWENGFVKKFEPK
Source text: To generate constructs with particular binding selectivities, cell penetrance properties, in vivo stability, and biological activity to enable the development of a drug for clinical use, staple scanning methodology was first used to generate a library of cysteine-reactive NOXA SAHBs to optimize binding potency, selectivity, and cellular penetrance. […] Staple scanning was achieved by sequential placement of (i, i+4) and (i, i+7) staples across the length of the peptide template, while keeping the N-terminal D-nipecotic acid (D-NA) reactive group constant (FIG. 2). We measured the reactivity of this NOXA library by incubating each peptide with BFL-1ΔC and detecting a higher molecular weight conjugate upon reducing and denaturing gel electrophoresis, and Coomassie staining (FIG. 3). Those peptides capable of covalent reaction with BFL-1 were advanced to cellular testing for peptide uptake. 293T cells transfected with HA-BFL-1ΔC C4S/C19S were treated with peptide (20 μM, 6 hr), and then harvested and lysates analyzed by anti-HA western blotting (FIG. 4). […] However, upon LDH release testing in A375P cells, this peptide was unexpectedly found to cause membrane disruption (FIG. 5). […]

A375P cells = experiment: LDH release assay, A375P cells; type: cell-based, human; details: 30 min
Procedure: After overnight incubation for A375P cells, or immediately upon plating for U937 cells, the cells were treated with the indicated concentrations of D-NA-NOXA SAHBs in DMEM or RPMI supplemented with 5% FBS for the indicated time period (30 min, 4 h). After plate centrifugation at 1,500 rpm (Thermo Scientific Sorvall Four-Place Swinging Bucket Rotor [75006445]; 478×g) for 5 min at 4° C., LDH release was quantified by transferring 100 μL of cell-culture medium to a clear plate (Corning), incubating with 100 μL of LDH reagent (Roche) for 30 min while shaking, and then measuring absorbance at 490 nm on a microplate reader (Spectramax M5, Molecular Devices).

His-BFL-1ΔC = target: T2, His-BFL-1ΔC (Homo sapiens, UniProt Q16548); experiment: Streptavidin pulldown from recombinant protein mixture, BFL-1; type: binding; details: equimolar mixture of recombinant MCL-1, BCL-XL, BFL-1 and biotinylated SAHB, silver stain; listed as D-NA-NOXA SAHB
T2 construct: Recombinant anti-apoptotic BFL-1ΔC (aa 1-151) and its cysteine to serine mutants were cloned into PET17b; made in house; host or cells: Escherichia coli LOBSTR BL21(DE3)
T2 sequence (Q16548 1-151): T1 sequence (Q16548 1-151 C4S/C19S) with S4C, S19C
Procedure: (§1) WT His-BFL-1ΔC, BCL-XLΔC (tagless), and GST-MCL-1ΔNΔC (1 μM each) were combined and incubated with 3 mM DTT in PBS for thirty minutes at room temperature. Mixtures were treated with vehicle or the indicated C-terminally biotinylated NOXA SAHB (1 μM) for four hours and were then added to 30 μL PBS-washed high-capacity streptavidin (SA) agarose beads (Thermo Fisher Pierce) and incubated with rotation at room temperature for two hours. The beads were then washed three times with NP-40 lysis buffer (1% NP-40, 50 mM Tris pH 8, 100 mM NaCl, 2.5 mM MgCl2) and three times with PBS. To elute bound protein, beads were boiled for ten minutes with 10% SDS containing 10 mg/mL biotin. After elution, samples were boiled with 3×LDS and 2M DTT for twenty minutes. Gel electrophoresis using a 12% Bis-Tris gel was conducted on inputs (2%) and eluates (5 μL) and gels were developed using the Pierce silver staining kit (Thermo Fisher).

GST-MCL-1ΔNΔC = target: T3, GST-MCL-1ΔNΔC (Homo sapiens, UniProt Q07820); experiment: Streptavidin pulldown from recombinant protein mixture, MCL-1; type: binding; details: equimolar mixture of recombinant MCL-1, BCL-XL, BFL-1 and biotinylated SAHB, silver stain
T3 construct: BCL-XLΔC (aa 1-212) and MCL-1ΔNΔC (aa 172-329) were cloned into the PGEX-4T-1; made in house; host or cells: Escherichia coli BL21(DE3)
T3 sequence (Q07820 172-329, stated change not applied): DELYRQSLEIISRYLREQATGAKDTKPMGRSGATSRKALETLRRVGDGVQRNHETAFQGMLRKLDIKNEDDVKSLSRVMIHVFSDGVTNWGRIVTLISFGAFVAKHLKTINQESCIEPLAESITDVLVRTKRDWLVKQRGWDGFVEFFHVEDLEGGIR
Procedure: as §1

native BFL-1 = target: T4, native BFL-1 (Homo sapiens, UniProt Q16548); experiment: BFL-1 targeting in A375P lysates (streptavidin pulldown, BFL-1 western); type: binding; details: biotinylated SAHB, compared to acetylated construct
T4 construct: endogenous in cells; host or cells: A375P melanoma cells (A10); U937 AML cells (A12), lysates
T4 sequence (Q16548 1-175): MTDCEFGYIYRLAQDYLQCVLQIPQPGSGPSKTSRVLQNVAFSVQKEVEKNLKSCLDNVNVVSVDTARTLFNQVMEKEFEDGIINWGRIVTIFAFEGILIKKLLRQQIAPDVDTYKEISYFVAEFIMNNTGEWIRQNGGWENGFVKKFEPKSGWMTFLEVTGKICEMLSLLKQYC
Procedure: Cultured A375P and U937 cells were trypsinized or harvested, respectively, washed with PBS, and lysed by incubating with 1% CHAPS lysis buffer (1% CHAPS, 150 mM NaCl, 50 mM Tris pH 7.4, 100 μM DTT). The protein concentrations of the soluble fraction were measured using a BCA kit according to the manufacturer's instructions (Thermo Scientific). Lysate samples (1 mg) were incubated with vehicle or C-terminally biotinylated NOXA SAHBs (30 μM) overnight in 1% CHAPS lysis buffer at 4° C. Biotin capture was accomplished by incubating the mixture with high-capacity SA agarose (Thermo Scientific) for 2 hours at 4° C., followed by centrifugation and washing the pelleted beads three times with lysis buffer (1 mL). Bead-bound proteins were eluted by boiling in 10% SDS containing 10 mg/mL biotin for 10 minutes and then subjected to electrophoresis and western blotting using BFL-1 (Abcam, #125259) and MCL-1 (Rockland #600-401-394S) antibodies.

Substance: *AT8LRRFGDXLNFRQ (AT[R8]LRRFGD[S5]LNFRQ; staple 3-10 (inferred); not fully specified (N-terminus); printed as *AT8LRRFGDXLNFRQ; also: N-terminal cap * is Ac or D-nipecotic acid, not settled) [NOXA-15]
- BFL-1 crosslinking (increase in molecular weight) (His-BFL-1ΔC C4S/C19S; BFL-1 constructs bearing C55 (wild-type and C4S/C19S) vs C55S, C4S/C19S/C55S): discrete increase in molecular weight
- conversion of BFL-1 C4S/C19S to peptide adduct (His-BFL-1ΔC C4S/C19S; intact mass spectrometry): complete conversion
- LDH release (lytic activity) (A375P cells): non-specific cell lysis
- BFL-1 binding / pull down (His-BFL-1ΔC): robust BFL-1 pull down; also recorded: substantial pull-down of BFL-1
- MCL-1 binding / pull down (GST-MCL-1ΔNΔC): similarly small amount of MCL-1
- targeting of native BFL-1 (native BFL-1): markedly enhanced BFL-1 pull down compared to Ac-NOXA SAHB
